Measurements taken from publication PMC12175530.

What was measured:
[1] = target: T1, EsrB-His6 (Edwardsiella piscicida) (UniProt A0AAU8P338); test: EMSA; settings: 20 mM Tris-HCl pH 7.5, 50 mM MgCl2, 5% glycerol, 20 uL, 2 h at 25 C
T1 sequence: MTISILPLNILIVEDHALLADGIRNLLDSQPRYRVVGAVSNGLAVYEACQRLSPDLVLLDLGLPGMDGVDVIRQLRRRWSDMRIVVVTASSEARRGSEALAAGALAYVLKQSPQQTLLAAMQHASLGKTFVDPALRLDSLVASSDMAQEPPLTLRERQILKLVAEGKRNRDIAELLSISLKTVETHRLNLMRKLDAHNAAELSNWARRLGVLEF

[2] = target: T2, EseE-His6 (Edwardsiella piscicida) (UniProt A0AAU8P1U3); test: EMSA; settings: 20 mM Tris-HCl pH 7.5, 50 mM MgCl2, 5% glycerol, 20 uL, 2 h at 25 C
T2 sequence: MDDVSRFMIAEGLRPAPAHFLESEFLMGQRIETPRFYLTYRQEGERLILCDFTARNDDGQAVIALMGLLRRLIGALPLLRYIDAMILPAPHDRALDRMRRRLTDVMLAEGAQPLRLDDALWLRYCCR

GCCCGAACACCCGAGAAAAACCAACGTAACTTCAGGTAATTACCCGATATCTTTCGCGCGGGTTCAGCACCCAGAATGGGCCGGGGAAAAAGAGTTCGTCTCCCGATAACCAAACAGCAAACGTTATGCAGCTTCTCGAAAGTTCGCCCGCTAACGGCGTTCTAGCATCACCTCATCGGTAGTCAATAGGAGGTTTCACT (double strand) [escC -200 to -1]
binding [1]: binds | binding [2]: binds
